Measurements: the DeepSol protein solubility set

Assay: soluble on expression in E. coli; label from the status in PepcDB or PDB records
In the case of “MGSDKIHHHHHHMAWLLVGTKKYEDFEKNERVNRWYLNVRARSPISADIWRRSLLRYCTINNTTPEGLLDMAQKGTLKDNFQDFTIRMIAEGRRGAYLAKVKEILHSWIRFNDIDYKIRINIPNERLNETTMDERVPTKEELSKILRMGTVRSRVSVSLMAFSGLRPEVLGNYEGTDGLTLGDIEDLDIDTLTFKNVPAKINVRNGLSKTRLKYFTFLGQEGCGYLKDYLDHRKASGEILKKESALLAPDPGNVQTAHGFLRTALIAREIRKAIRNSNLSMRPYVLRVYFATALDIAESKGSISHPWRQYIMGHKGDIEATYSTNKRLLPETIEGMRSAYLKCTKFFETEEKGIKEEDYQKMLRDSAIDTLTGAFGITLTDDQKEELRNLDTAEYQKRLGEIFKDRKADLLNNGNSQKVIPFKDVEKYIEQGWEYVRDFPGNKAIVRLPS”, the “soluble on expression in E. coli” value is reported as “not soluble”.
In the case of “MGSDKIHHHHHHMAYSDTPEQSAVINWKGRHLVVNAFAGTGKTTTLVRYAQANPDRRMLYLAYNRAVRDDAERKFPFNVECKTSHQLAWMKFGKHLKPRLTPNLRITDVARKLNTRHWPLVRMALAALNHFLCSASPALSYEHLPDENNREGLDAGNILGAAQFLWNEMSRIDSTFPVTHDTYLKLFQLSVPDLSKRWDTILFDEAQDANPVISSLVLTQNCNVVLVGDRHQQIYRFRGADNALNAPVLEGADRLWLTQSFRFGSAVAEMANVLLARQEETHPVIGNGGDDDVIDRLPADVSRYTILSRTVAGVIGAALYESMKEKIVYWVGGIEGYKTEELEDLYWFSVDMPERMRTPRLSREYRDFEEYKSMTKATGDVEMNQAIGLLDKYFPLPQKLQVLRSQATTNEKDADVVVSTAHRSKGLEWDTVMLNDDFSDITDPLLSEAARTDETNLLYVATTRARKLLVRNELLKLLCEQEESDDIAEDQFTDSNLI”, the “soluble on expression in E. coli” value is reported as “not soluble”.
With “MGSDKIHHHHHHMCIYCISKQVFCLSGLRFPYGFTPMGLHLRSLNMAYINKSNVSILRSLSCASISLYYSMSAAASHLEVDDPALAERCELEMGWQQPRSDHARTQLNATTTCSRNQWEWHVGLASNVNDDIREEQAEVGIKLPLNLNSHSDSNRQQDDWHSALVINLQKNLDASNELATEVFGIFGKTLSDSDVSLYANVGFTHEFNQSTQLLVGIAAAHELSSHHRVITELYQKELSETAYQFAYQHTPQQQLQLELSLGNALRGNALQLGADITFYFGH” the “soluble on expression in E. coli” value was “not soluble”.
For “MGSDKIHHHHHHMCQRPPARRATGPFPTLTASRAAARACTVTFQPNCARPCVRQRPEAAIDMAKTYNPAHADISPAARLAALGAGEAVDLGEYRVIRATHQDRPVFFAVRNAMDAIQKHHIEGAFYETEELDIIRRHFAPGETFIDLGANVGNHALYVAMYLEPAKVLCVEPNSLAYENLLANIVLNGVEETFDLSWLGFGVSCNVGDGFGITHWVHNLGGGKLIPRDGGTISLRSGDDILADTKADFIKIDVEGMEMDVLTSLENTVARDRPKIFVEVDNENRDAVLAWVDTHGYTTHETFKRYRDNENFLFVPESESET”, the “soluble on expression in E. coli” value was “not soluble”.
With “MGSDKIHHHHHHMDAAKDDLEHAKHDLEHGFYNWACFSSQQAAEKAVKAVFQRMGAQAWGYSVPDFLGELSSRFEIPEELMDHALELDKACIPTRYPDALPSGSPRNRYSRIEAERLVNYAEKIIRFCEDLLSRI” the “soluble on expression in E. coli” value was “soluble”.
For “MGSDKIHHHHHHMDALVRASGLRGYPALMRDLGCDPTPLLQRYHLDEGALGSDDAMISLRAVVHLLEASAEQTRTGDLGLRLSRHQSIDVLGPLSIALQNAPTIRAAMDFAARHTFVHSPGLVYAVHKHSEFANDAAEVSIEIRLSRQPAQRQTIDLCLADIHNFTRLLAGDRYLLRAVSVPHTPVVPVSTYERFFGARVWVEQPRASLHLSRSTLAADLLGVDATLRRIAEDYIFRHFGSEQGSVSDRVRQVLRQTLGTSSHSKATVADLLALHPRTMQRRLAAEATSFEAIRDDVRRELAMRYLCETSLPLGQISLLLGLPAQSALSRACRQWYGVPPSALRKHKRAAD”, the “soluble on expression in E. coli” value was “not soluble”.
For “MGSDKIHHHHHHMDCFYDYHKSLSPDEYVWDYEEFLYYGSDKFIKDVFVDGGVDIALSQPAYLQFFFREPFGNTNEFGTMALKYPYRFIIGTRWDPREGEEGKRQLEEDVRKYRVKPWQMRHVKLYTAEWKEVNGGISRGWRLDSPQAFEFLEFNRELGIDIQVPHKGPTVWPLSKDAFDVHDVDTAASSFPELRFVVTHVGLPRIDDFSWIGVQDKNVYAGLAVATAFIRKRPKYFAEIMAELLFWLGPDRIIFGSDYAIWHPKWIIEDFIKFELPRDLESEYGVELTLENKKKILGENAARLWGIDVEEAKKAVREDQIASRYGAKPRVFKVEG”, the “soluble on expression in E. coli” value was “not soluble”.
With “MGSDKIHHHHHHMDDLLLELARQYRNRYYGKYRGFVTDNDDPEQRGRLRLMVPSVLGETPTGWALPSLPFGGLADQGLFMVPEVDAQVWVEFEAGNVNLPIWTGTFWQASGDPPAEAAKSPPTTRVLKTPSGHILQFDDESGAEKFRLAHPAGTEMTVDEKGTVIVADAKGNTLTLDADAGKVVVEDSNGNTITMSSSGTTIEDANGNKVEMAASGVTVKGQQVVVDAQTVMLAGQGGEPIIKGQSFLTLFATHVHPSAMGPTGPPIPQGEMSTLSMKVMTS” the “soluble on expression in E. coli” value was “not soluble”.
With “MGSDKIHHHHHHMDEALRTYIRVVELQSFTKAAEELHISQPAVSLQLKKLEEIYETELIYRQAKKFILTATGEILYHRAKQLEGLYKQVEDEISLYHHHLKGRLRIGASFTIGEYFLPEVIAKFHALYPDITIELIIENTAKIADKVELLQVDTGLIEGQVSKKDLEISAFSDDEMCIVGRADGSLTEIEQGATWIAREEGSGTREYLDHVLSTNGWNVAEKVVAWSNMAVKQMVLEGMGYTVISKCVVQTEITSGKLQTFNEAGSLMRKFSVLKNRQRLENRIAETFLTFLKENQ” the “soluble on expression in E. coli” value was “not soluble”.
With “MGSDKIHHHHHHMDEVSVWRRAWTYVVTTLAQSLPNRCLLCHQTVIEGSGVCSLCLQRCLYHGPVCLGCGRSLVNDGAFCGACRVLGALPVIAPCSYHQGLGASIAAIKYQGQFAALDVLCRALMARVTQLTEEGEIPPVSLLLPVPLHPKRLKTRGFNQAYEIALLLSKLSGIPLCDDLLRRRRDTQPQAGLTGKARRKNLLGAFELTGSCHQGSVALVDDVVTTGSTANEIATMLQLQGVRVQVWCLARAEAPGLLDTFS” the “soluble on expression in E. coli” value was “not soluble”.
With “MGSDKIHHHHHHMDFIEVYPNAIPDELCDRLIETVNTHPGVIDGITGHGVDLEKKISRDITMDNFQELLPLRNELLNYTLKHSAQYFEKYALGLMGAVAVTLADEQGKPQTLTPDNFDTLGRHRVQPLVQYLYRSGTINIQHYQQGKGGYPHWHSEQFPQMGHNEALHRVVLYMFYLNDVEEGGETEFFYQQRKIKPKKGTMVIAPAGFTHSHRGNMPISGDKYIATSWVMFNRAEKLYAPVG” the “soluble on expression in E. coli” value was “not soluble”.
In the case of “MGSDKIHHHHHHMDIKQLKFLIALDETRHFGQAAARCNITQPTLSMRLRNLEEELGLPLVNRGQRFEGFTAPGERVLAWARTVLAAYDGLQAEAAACRGHLVGTLRLGVVPMSSFDPLPLLHRLHQLHPNLRFELSSLSSEQVLEQLASNRIDLGVSYLERLDSERFDSLTLDETRMGLLYDRRHFTFGDTPLSWADLVELPLGTLTSGMHFRQSIDHNFHSRGLQPNPLIQTDAVHQLLQAVHGGFCCAIMPLDGGLETLTEHLHLHPIADACTLARLGLIMRRSAPRSALAEACFALVAEIPR”, the “soluble on expression in E. coli” value is reported as “not soluble”.
In the case of “MGSDKIHHHHHHMDKPFRRILLIKMRFHGDMLLTTPVISSLKKNYPDAKIDVLLYQDTIPILSENPEINALYGIKNKKAKASEKIANFFHLIKVLRANKYDLIVNLTDQWMVAILVRLLNARVKISQDYHHRQSAFWRKSFTHLVPLQGGNVVESNLSVLTPLGLDSLVKQTTMSYPPASWKRMRRELDHAGVGQNYVVIQPTARQIFKCWDNAKFSAVIDALHARGYEVVLTSGPDKDDLACVNEIAQGCQTPPVTALAGKVTFPELGALIDHAQLFIGVDSAPAHIAAAVNTPLISLFGATDHIFWRPWSNNMIQFWAGDYREMPTRDQRDRNEMYLSVIPAADVIAAVDKLLPSSTTGTSL”, the “soluble on expression in E. coli” value is reported as “not soluble”.
With “MGSDKIHHHHHHMDKRIFGIETEFGISYSSPDSRPLAPEEVARYLFRKVVSWGRSSNVFLTNGSRLYLDVGSHPEYATAECDDLGQLIAHDRAGELILDDLVDEAQERLAAEGFNGTVYLFKNNTDSAGNSYGSHENYLIPRRGEFSRLAEILIPFLVTRQLIAGAGKILKTPHGATFAFSQRADHIWEGVSSATTRSRPIINTRDEPHADAEFYRRLHVIVGDSNMSETTALMKVGTVDLILRMIEAGVIMRDMRMENPIRSIREISHDLSGRALIRLANGRQLTALEIQREYLNKVTSFVAENGAHNQHVPLILDLWERTLTAIESGDTSTIDTEIDWAIKKKLMDSYRKRHGLGLDAPRIAQLDLTYHDISRTRGLYYLLQSRGAVRRVVDDTAVKDAVDAPPQTTRAKLRGDFVRRAQELGRDYTVDWVHLKLNDRAHQTILCKDPFRNVDERVDALLDSMG” the “soluble on expression in E. coli” value was “not soluble”.
For “MGSDKIHHHHHHMDKSIKSNAEKFIMIYNEIDRYMRKVLDENERTGNADLVKKMAKRNKVFEEYKDELMLFARLRNSIVHNPYNAELDPIAEPHDKIIVKYGELRDKILNPPLALDTIAVKGKNIYVVTQNESVLDVMTVMKDNNYANVPVVDNLGMIVGVFSKNTVFSYMVENEGVQIRRDTKINDFKEFIPLHKHENEFFAFVSRKTLAVEIEDMFKKRIHGKKKLSLVFITETGRVKEKILGIVTPWDIAIN”, the “soluble on expression in E. coli” value was “not soluble”.
In the case of “MGSDKIHHHHHHMDLKEKILDYKDEVVKEIQNAVRVKSVKEAPLPGMPFGEGPAKALDHFMDLAKKLGFKAEKFDNYAMHIDMGEGKETLGILAHVDVVPEGDNWTYPPYSGTIADGKIFGRGTLDDKGPAIISLFAMKAIADSGVKLNKKIRMILGADEESGSACLKYYFGELKMPYPDIAFTPDSSFPVTYAEKGSVRVKIKKKFNTLQDLVIKGGNAFNSVPNEANGVIPVDMLGEVRNKNKVEFEREGNTYKVFSAGIPAHGAYPSKGYNAVSALFEVLKDIEVKNEELKGLVTFFDKFVKMETDGKSFGVKCTDGETGELTLNLGKINLENNELEIWIDMRIPVKVKNEQIIETIKENTEDYGYEFLLHSNTQPLYVAKDSFLVSTLMNIYKELTGDNDAEPVAIGGGTYAKYAKNAVAFGALLPDQEDRMHQRDEYLEISKIDKLLQIYVEAIYRLAK”, the “soluble on expression in E. coli” value is reported as “not soluble”.
For “MGSDKIHHHHHHMDLKKWQDPLMNSELQQNYNDNLVKLAGSLEKANQDMTHVNQRISNLVIKSGGNESNEVVDARVSSLVPETEFTTLNDRINYAENALITGVGKLSTNVFDLMDKYNDIDTILKRLYGLDSSNIEIFVDDARGDDIAGTGEIDAPFKTINKAVMTLPRVLNSNSVNIWIVPGRYNEDVVIPPIMGGDIYIRSTNFETVDPTSSTGCQVRSISATGSNGYLYIAGLEETNTAGTTKNYFIKATRCGFVRITKCRMAFNTKAIDPFTAVFIDACSADVNGCYFASQNVDVRGYNTARVEVQNIVHGAKSAIGLYPQSADIFNLNSGTWEADTPTKLSGGGVVRT”, the “soluble on expression in E. coli” value was “not soluble”.
With “MGSDKIHHHHHHMDLRGRLIPDYRIDTPVDAPLEYRPAVTWRCERCGKLPTRGPCTCGKRCYYCRHCLIFGKLRTCDRLVTDPRPLDPVRPDHHTELNLTSDQQRIAEAIVRTIDQRKRLLVHAVCGAGKTPMLFPGIERALSTNRRVLITAPRADVVRELTGHLRRAFQQATIVSLFGGSEDRLGIGDITISTTHQLIHYRACFDVVFIDEVDAFPYRTDRTLHRYVRQATAPGASLILLSATPSLRDRRLPTVRLMRRYHGFPLPTPRLQVPYGKHDVVDWVLTHAGKPRLLFVPQVEALETWQTCLQQQGITCETVHAADPDRITKVARFRQTTGVLLTTTILERGVTLINVQVAVLDADHSFSSAALIQISGRVGRSADFPEGDVVLFANDRSDAMYEAIDHIKRANREGFR” the “soluble on expression in E. coli” value was “not soluble”.
